Substitutions are numbered along the chain they refer to. Names and notes keep the numbering of the source.
Assays:
[1] = biological target: T1, human Endo180-His (aa: 31-513; comprising the first four N-terminal domains) (human, UniProt Q9UBG0 31-513); assay: ELISA, immobilized human Endo180-His
T1 construct: In-house produced; also called huEndo; human Endo180-His molecule; not shown: His tag
T1 sequence: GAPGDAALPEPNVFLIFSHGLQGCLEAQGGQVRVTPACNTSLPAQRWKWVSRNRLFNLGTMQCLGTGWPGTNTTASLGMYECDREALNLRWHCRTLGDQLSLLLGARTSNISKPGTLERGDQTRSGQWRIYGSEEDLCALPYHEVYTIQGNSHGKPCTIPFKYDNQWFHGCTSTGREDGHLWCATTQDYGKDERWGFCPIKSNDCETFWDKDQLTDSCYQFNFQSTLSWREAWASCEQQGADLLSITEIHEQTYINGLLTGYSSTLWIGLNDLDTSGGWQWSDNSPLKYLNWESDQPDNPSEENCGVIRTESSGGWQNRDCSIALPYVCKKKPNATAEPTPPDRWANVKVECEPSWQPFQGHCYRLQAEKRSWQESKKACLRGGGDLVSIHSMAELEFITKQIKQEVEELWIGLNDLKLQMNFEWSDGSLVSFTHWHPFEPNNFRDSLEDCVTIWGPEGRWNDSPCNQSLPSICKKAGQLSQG

[2] = biological target: T2, human Endo180-moFc DI-DIV variant region 1 (N233E, D234G, T237S, Q243P, D246S) (human, UniProt Q9UBG0 31-513); assay: ELISA, 10 nM IgG on immobilized variant (3 µg/ml)
T2 construct: Domain III residues swapped to those of MRC1; not shown: murine Fc
T2 chain: T1 sequence with N203E, D204G, T207S, Q213P, D216S

[3] = biological target: T3, human Endo180-moFc DI-DIV variant region 2 (Q254K, T256A, S258T, E261Q) (human, UniProt Q9UBG0 31-513); assay: ELISA, 10 nM IgG on immobilized variant (3 µg/ml)
T3 construct: not shown: murine Fc
T3 chain: T1 sequence with Q224K, T226A, S228T, E231Q

[4] = biological target: T4, human Endo180-moFc DI-DIV variant region 4 (D304S, T305F, S306N) (human, UniProt Q9UBG0 31-513); assay: ELISA, 10 nM IgG on immobilized variant (3 µg/ml)
T4 construct: not shown: murine Fc
T4 chain: T1 sequence with D274S, T275F, S276N

- EC50 [1]: 4.7 nM
- binding result [2]: binds
- binding result [3]: binds
- binding result [4]: binds
B1: Human IgG1 G7V with a wildtype γ1 heavy chain (antibody, V domains shown)
VH: EVQLVESGGGLVKPGGSLRLSCAASGFTFSSYSMNWVRQAPGKGLEWVANIKPDGSERHSVDSVKGRFTISRDNSKNSLYLQMNSLRAEDTAVYYCARPGAGRLDYWGQGTLVTVSS
VL: SSELTQDPAVSVALGQTVRITCQGDSLRSYYASWYQQKPGQAPVLVVYGKNNRPSGIPDRFSGSSSGNTASLTITGAQAEDEADYYCNSRDSSGNPWAFGGGTKVTVLG
notes: Naked antibody, made in HEK293-6E (lab scale) or CHO (1 L scale); also called IgG G7V; OMTX007-G7V

— patent EP4578463A1, “ENDO-180 TARGETED ANTIBODY-DRUG CONJUGATES” (Oncomatryx Biopharma, S.L., priority 2023, dated 2025)
